± gives the uncertainty stated by the source.
B1: Ankyrin-1, residues 1405 to 1484; numbered along this chain, P16157 (parent)
chain: MKMAVISEHLGLSWAELARELQFSVEDINRIRVENPNSLLEQSVALLNLWVIREGQNANMENLYTALQSIDRGEIVNMLE

Variants of: B1
Test: abundance fitness (aPCA) (normalised: wild type 0, dead -1); higher = more abundant; growth selection in yeast, the domain comes from the species named
Conditions: Homo sapiens

Point of comparison: MKMAVISEHLGLSWAELARELQFSVEDINRIRVENPNSLLEQSVALLNLWVIREGQNANMENLYTALQSIDRGESVNMLE, abundance fitness -0.457 ± 0.1. Against it:
- MKMAVISEHLGLSWAELAWELQFSVEDINRIRVENPNSLLEQSVALLNLWVIREGQNANMENLYTALQSIDRGEIVNMLE — within error, -0.268 ± 0.09
- MKMAVISETLGLSWAELARELQFSVEDINRIRVENPNSLLEQSVALLNLWVIREGQNANMENLYTALQSIDRGEIVNMLE — within error, -0.285 ± 0.16
- MKMAVISEHLGLSWAELARELQFSVEDINRIRVENPNSLLEQSVALLNLWVIREGQNANMENLYTELQSIDRGEIVNMLE — lower, -0.85 ± 0.17
- MKMAVISEHLGLSWAELARELQFSVEDINRIRVENPNSLLEQSVALLNLWVIREGQNANMENLYTALQSIDEGEIVNMLE — within error, -0.647 ± 0.11
- MKMAVISEHLGLSWAELARELQFSVEDINRIRVENPNSLLEQSVALLNLWVIREGQNANMENLYTALQSIDPGEIVNMLE — higher, -0.226 ± 0.13
- MKMAVISEHLGLSWAELARELQFSVEDINRIRVENPNSLLEQSVVLLNLWVIREGQNANMENLYTALQSIDRGEIVNMLE — within error, -0.513 ± 0.065
- MKMAVISEHLGLSWAELARELQRSVEDINRIRVENPNSLLEQSVALLNLWVIREGQNANMENLYTALQSIDRGEIVNMLE — lower, -0.833 ± 0.085
- MKMAVISEHLGLSWAELARELQFSVEDTNRIRVENPNSLLEQSVALLNLWVIREGQNANMENLYTALQSIDRGEIVNMLE — within error, -0.43 ± 0.11
- MKMAVISEHLGLSWAELARELQFSVEDINRIRVENPNSLLEQSVALLNLWVIRDGQNANMENLYTALQSIDRGEIVNMLE — within error, -0.3 ± 0.1
- MKMAVISEHLGLSWAELARELQFSVEDINRIRVENPNSLLEQSVALLNLWVIRMGQNANMENLYTALQSIDRGEIVNMLE — higher, -0.294 ± 0.058
- MKMAVISEHLGLSWAELARELQFSVEDINRIRVENPNSLLEQSVALLNLWVIREGQNANMANLYTALQSIDRGEIVNMLE — higher, 0.165 ± 0.21
- MKMAVISEHLGLSWYELARELQFSVEDINRIRVENPNSLLEQSVALLNLWVIREGQNANMENLYTALQSIDRGEIVNMLE — higher, 0.128 ± 0.17
- MKMAVISEHLGLSWVELARELQFSVEDINRIRVENPNSLLEQSVALLNLWVIREGQNANMENLYTALQSIDRGEIVNMLE — higher, 0.066 ± 0.047
- MKMAVISEHLGLSWAELARELQFSVEDINRIRWENPNSLLEQSVALLNLWVIREGQNANMENLYTALQSIDRGEIVNMLE — higher, -0.073 ± 0.07
- MKMAVISEHLGLSWAELARELQFSVEDINRIRVENPNSLLEQSVALLNLWVIREGQNANMENLYTALQSIDRGEIVNILE — higher, 0.041 ± 0.12
- MKMAVISEHSGLSWAELARELQFSVEDINRIRVENPNSLLEQSVALLNLWVIREGQNANMENLYTALQSIDRGEIVNMLE — lower, -0.852 ± 0.22
- MKMAVISEHLGLSWAELARELQFSVEDINRIRVENPNSLLEQSVALLNLWVIREGNNANMENLYTALQSIDRGEIVNMLE — within error, -0.191 ± 0.47
- MKMAVISEHLGLSWAELARELQFSVEDINRIRVENPNSLLEQSVALLNLWVIREGQNANMENLYTALQSIDRLEIVNMLE — within error, -0.399 ± 0.036
- MKMAVISEHLGLSWAELARELQFSVEDINRIRVENPNSLLEQSVALLNLWVIREGQNANMENLYTALQSIDRSEIVNMLE — higher, -0.192 ± 0.04
- MKMAVISEHLGLSWAELARELQFSVEDINRIRVENPNSLLEQSVALLNLWVIREGQNANMENLYTALQSIDRGEGVNMLE — within error, -0.509 ± 0.073
- MKMAVISEHLGLSWAELARELQFMVEDINRIRVENPNSLLEQSVALLNLWVIREGQNANMENLYTALQSIDRGEIVNMLE — within error, -0.487 ± 0.12
- MKMAVISEHLGLSWAELARELQFSVEDINRIRVENPNSLLEQSVALLNDWVIREGQNANMENLYTALQSIDRGEIVNMLE — higher, -0.196 ± 0.087
- MKMAVISEHLGLSWAELARELQFSVEDINRIRVENPNSLLEQSVALLNAWVIREGQNANMENLYTALQSIDRGEIVNMLE — higher, -0.138 ± 0.057
- MKMAVISEHLGLSWAELARELQFSVEDINRIRVENPNSLHEQSVALLNLWVIREGQNANMENLYTALQSIDRGEIVNMLE — higher, -0.136 ± 0.11
- MKMAVISEHLGLSWAELARELQFSVEDINRIRVENPNSLLEQSVALLNLWVIREGQNANMENLYYALQSIDRGEIVNMLE — higher, -0.132 ± 0.11
- MKMAVISEHLGLSWAELARELQFSVERINRIRVENPNSLLEQSVALLNLWVIREGQNANMENLYTALQSIDRGEIVNMLE — within error, -0.46 ± 0.071
- MKMAVISEHLGLSWAEAARELQFSVEDINRIRVENPNSLLEQSVALLNLWVIREGQNANMENLYTALQSIDRGEIVNMLE — within error, -0.607 ± 0.12
- MKMAVISEHLGLSWAELARELNFSVEDINRIRVENPNSLLEQSVALLNLWVIREGQNANMENLYTALQSIDRGEIVNMLE — higher, -0.077 ± 0.22
- MKMAVISEHLGLSWAELARELEFSVEDINRIRVENPNSLLEQSVALLNLWVIREGQNANMENLYTALQSIDRGEIVNMLE — higher, -0.043 ± 0.071
- MKMAVISEHLGLSWAELARELFFSVEDINRIRVENPNSLLEQSVALLNLWVIREGQNANMENLYTALQSIDRGEIVNMLE — higher, -0.092 ± 0.15
- MKMAVISYHLGLSWAELARELQFSVEDINRIRVENPNSLLEQSVALLNLWVIREGQNANMENLYTALQSIDRGEIVNMLE — lower, -0.722 ± 0.14
- MKMAVISSHLGLSWAELARELQFSVEDINRIRVENPNSLLEQSVALLNLWVIREGQNANMENLYTALQSIDRGEIVNMLE — higher, -0.18 ± 0.061
- MKMAVISEHLGLSWAELARELQFSVEDINRIRVENPNSLLEQSVALLNLWVIREGQNANMENLYTASQSIDRGEIVNMLE — lower, -0.829 ± 0.14
